Laboratory results taken from patent US20230303660A1.

Biological target: human 4-1BB (human) (UniProt Q07011)
Assay: cell-based or functional assay

Sequence of human 4-1BB (human) (Q07011 24-255): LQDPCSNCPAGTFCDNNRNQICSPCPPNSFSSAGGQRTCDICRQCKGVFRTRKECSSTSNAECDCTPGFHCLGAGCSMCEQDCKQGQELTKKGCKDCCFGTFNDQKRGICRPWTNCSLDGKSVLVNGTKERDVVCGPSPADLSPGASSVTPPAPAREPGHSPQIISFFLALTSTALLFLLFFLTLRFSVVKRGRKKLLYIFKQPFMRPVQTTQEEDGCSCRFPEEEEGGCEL

NF-κB activation measured through eCFP expression (fold induction): 2.5 fold
Substance: human 4-1BBL expressed on T cell stimulator cells (from UniProt P41273 1-254) (ligand)
